We go through 84 variants from the supplement of paper PMC6755084.

First the molecules themselves.
B1: minF1; the commonest letter at each place (parent)
chain: GAGACCGCAACTGAAAAGTTGTTATCAGAAATGGATGGGTTGAATTTCTGCACGTAGAAGCAAAAGGC
B2: minF1; a variant is named by its letters at N, in order (parent)
chain: GAGACCGCAACTGAAAAGTTGTTNNNNAANNNNGGNTNNATTTCTGCACGTAGAAGCAAAAGGC

Variants of B1 are the subject of one data set. Kind of data set: fraction ligated after 30 min (ligated reads / total reads); higher = more ligase activity. Conditions: with F1*subA RNA substrate (template-directed ligation), 42 °C. On the procedure:
(§1)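 Chip-synthesised pool of minF1 ligase ribozyme variants (single and double substitutions, single to quadruple deletions, bulge and P2 designed variants) was transcribed with T7 and reacted as a pool with excess substrate F1*subA for 30 min at 42 C in 50 mM EPPS pH 8.5, 25 mM MgCl2. Ligated and unligated RNAs were separated by PAGE, barcoded by RT and deep sequenced; fraction ligated = ligated reads / total reads, relative activity = FL / FL of wild-type minF1 (0.76); sequencing FL correlated with PAGE (R2 = 0.98). Sequences are the DNA template of the ribozyme.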
As for T23A G33T, the fraction ligated was found to be 0.0493. On the same count and under the same terms, as for T23A A31G, the figure is 0.264. Same read-out and setting: the value for T23A A31T was 0.325. The same measure, in the same setting: the value for T23A A31C was 0.181; that for T23C T36G was 0.0318; that for T23C T36A was 0.0123. As to T23C T36C, the fraction ligated was 0.00904. Regarding T23A G37T, the fraction ligated was 0.00942. On the same count and under the same terms, as for T23A G37A, the figure is 0.00757; as for T23A G37C, 0.00499.

In the case of T23C A31G, the fraction ligated was 0.392. On the same count and under the same terms, the value for T23C A31C was 0.328; that for T23C A31T was 0.517. On the same count and under the same terms, as for T23C A43T, the figure is 0.00662; as for T23C A43C, 0.00429.

For the variant T23C A43G, the fraction ligated was 0.00398. The same measure, in the same setting: the value for T23C A29G was 0.277. The same measure, in the same setting: as for T23C A29T, the figure is 0.288. Same read-out and setting: as for T23C A29C, the figure is 0.254; as for T23G T25A, 0.0923; as for T23G T25C, 0.153.

As for T23G T25G, the fraction ligated stood at 0.193. T23A A35G: the fraction ligated stood at 0.0122.

With T23A A35C, the fraction ligated turned out to be 0.00609. T23A A35T: the fraction ligated stood at 0.0125. On the same count and under the same terms, the value for T23C A44C was 0.0323. As to T23C A44G, the fraction ligated is 0.0605.

Turning to T23C A44T, the fraction ligated was 0.0534. Still for that read-out and setting: as for T23G G37C, the figure is 0.00547.

On to T23G G37A, for which the fraction ligated worked out at 0.00471.

For T23G G37T, the fraction ligated was 0.00959. Turning to T23A T32A, the fraction ligated was determined as 0.00638.

As to T23A T32G, the fraction ligated turned out to be 0.000962. In the case of T23A T32C, the fraction ligated was 0.00262. Still for that read-out and setting: as for T23A C26A, the figure is 0.00635; as for T23A C26G, 0.00512; as for T23A C26T, 0.0201. Still for that read-out and setting: the value for T23A A29T was 0.156. Still for that read-out and setting: the value for T23A A29C was 0.15; that for T23A A29G was 0.189; that for T23A T36C was 0.012. T23A T36A: the fraction ligated was 0.0114. On to T23A T36G, for which the fraction ligated is 0.0346. Same read-out and setting: the value for T23G A24G was 0.00157; that for T23G A24C was 0.0996. Same read-out and setting: as for T23G A24T, the figure is 0.104; as for T23A A44T, 0.0479; as for T23A A44G, 0.0455. Take T23A A44C: the fraction ligated is 0.0208.

T23A A30C: the fraction ligated turned out to be 0.126. The same measure, in the same setting: as for T23A A30T, the figure is 0.132; as for T23A A30G, 0.358; as for T23A G28T, 0.176. Same read-out and setting: as for T23A G28A, the figure is 0.178; as for T23A G28C, 0.132.

In the case of T23C G37C, the fraction ligated turned out to be 0.00507. On the same count and under the same terms, the value for T23C G37T was 0.0164. On the same count and under the same terms, the value for T23C G37A was 0.00595. On the same count and under the same terms, as for T23A G34A, the figure is 0.0227. Take T23A G34T: the fraction ligated was 0.00436. Regarding T23A G34C, the fraction ligated was determined as 0.00115. On the same count and under the same terms, as for T23G G34A, the figure is 0.0854; as for T23G G34C, 0.00122.

Take T23G G34T: the fraction ligated turned out to be 0.00441. Same read-out and setting: the value for T23G A30C was 0.789; that for T23G A30T was 0.806; that for T23G A30G was 0.803.

Variants of B2 are the subject of a further data set. The description is as above. The conditions noted are these: with F1*subA RNA substrate (template-directed ligation), 42 °C. As to the method: as §1
As to ATCAATGGGTT G34T T37G A40G, the fraction ligated was 0.00223. Same read-out and setting: the value for ATCATGGGTGA A28G was 0.00379; that for ATGAGGAGTGA was 0.00532; that for ATCATGGAGTT A28G G34T T37G A40G was 0.00132.

Regarding ATCATGTGTGA, the fraction ligated worked out at 0.00648. Still for that read-out and setting: as for ATCGAGGAGTG, the figure is 0.0042; as for ATCGAGGAGTA, 0.00327. The same measure, in the same setting: as for ATGATGGAGTT G34T T37G, the figure is 0.00184; as for ATGATGATGTG, 0.00639. Still for that read-out and setting: as for ATGATGATGTA, the figure is 0.00247; as for ATCGATGGGTA G34A, 0.00165.

As to ATCGATGGGTA G34T, the fraction ligated was 0.00207.

Take ATCAGGATTGA: the fraction ligated was 0.00379. Take ATCAGATGTGA A28G A29T: the fraction ligated turned out to be 0.00278. On to ATCAGATGTGA A28G A29G, for which the fraction ligated was 0.00309.

As to ATGATGGAGTT G34T T37G A40G, the fraction ligated came out at 0.0011. In the case of ATGAGATGTGA, the fraction ligated came out at 0.00646.
